Measured values reported in patent US11279747 (UNIVERSITAT ZURICH, dated 2022).

T1: mouse Pirb (mouse, UniProt P97484 25-642, limits assumed)
T1 construct: Bought protein coated on the ELISA plate; also called PirB (murine homologue to LILRB)
T1 sequence (looked up): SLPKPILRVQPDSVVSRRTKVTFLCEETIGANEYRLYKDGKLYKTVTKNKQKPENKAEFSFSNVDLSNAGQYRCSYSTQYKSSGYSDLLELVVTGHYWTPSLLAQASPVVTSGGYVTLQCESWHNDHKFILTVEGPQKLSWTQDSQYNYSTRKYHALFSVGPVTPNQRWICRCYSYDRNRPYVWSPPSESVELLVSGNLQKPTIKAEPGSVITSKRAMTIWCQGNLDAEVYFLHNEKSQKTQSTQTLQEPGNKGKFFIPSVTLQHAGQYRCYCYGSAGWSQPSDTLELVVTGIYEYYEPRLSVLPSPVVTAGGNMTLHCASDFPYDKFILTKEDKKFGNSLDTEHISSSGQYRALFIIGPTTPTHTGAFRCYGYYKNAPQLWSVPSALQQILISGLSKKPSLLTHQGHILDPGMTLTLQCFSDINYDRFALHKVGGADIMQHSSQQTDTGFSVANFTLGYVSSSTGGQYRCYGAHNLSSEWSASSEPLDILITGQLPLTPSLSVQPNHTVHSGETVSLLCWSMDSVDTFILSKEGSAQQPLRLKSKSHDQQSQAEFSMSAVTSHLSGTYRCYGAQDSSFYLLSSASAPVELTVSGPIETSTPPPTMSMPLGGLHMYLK


Tests used:
human LILRB2 [1] = target: T2, human LILRB2 (human, UniProt Q8N423 22-458, limits assumed); assay: ELISA, receptor coated at 10 µg/mL, HLA2-Fc at 10 µg/mL, anti-human Fc-HRP
T2 construct: Bought protein coated on the ELISA plate
T2 sequence (Q8N423 22-458 limits assumed): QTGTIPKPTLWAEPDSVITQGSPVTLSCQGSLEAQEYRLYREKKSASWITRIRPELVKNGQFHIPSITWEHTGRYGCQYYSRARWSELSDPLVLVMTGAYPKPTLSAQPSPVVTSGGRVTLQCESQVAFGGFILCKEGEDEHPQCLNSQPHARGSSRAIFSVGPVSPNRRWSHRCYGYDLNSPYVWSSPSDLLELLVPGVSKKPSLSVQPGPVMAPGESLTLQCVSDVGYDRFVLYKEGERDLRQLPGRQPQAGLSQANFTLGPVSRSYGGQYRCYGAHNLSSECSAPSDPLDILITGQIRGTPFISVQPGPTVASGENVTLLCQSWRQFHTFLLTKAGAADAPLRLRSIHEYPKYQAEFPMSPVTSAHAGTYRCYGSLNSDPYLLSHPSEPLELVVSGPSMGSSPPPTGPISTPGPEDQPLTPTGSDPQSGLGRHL
Method: (§1) Competition ELISA assays were performed using Maxisorp (Nunc, Switzerland) 96 well plates coated with 10 μg/mL of selected leukocyte receptors (human KIR3DL1, human KIR3DL2, human KIR3DL3, human LILRB1, human LILRB2, human PTPRJ and mouse Pirb) purchased from Creative Biomart. Receptors were incubated for ON 4° C., blocked with 5% milk powder-TBS 2 hrs. HLA_2-Fc selected constructs (A25_2-Fc, A30_2-Fc, B2705_2-Fc, B53_2-Fc, B57_2-Fc, B58_2-Fc, C08_2-F, and C12_2-Fc) and their controls (A25-β2m-Fc, A30-β2m-Fc, B2705-β2m-Fc, B53-β2m-Fc, B57-β2m-Fc, B58-β2m-Fc, C08-β2m-Fc and C12-β2m-Fc) and isotype IgG4 were added at 10 μg/mL for 2 hrs RT. HRP-conjugated antibodies against human Fc were used as detectors.

human LILRB1 [2] = target: T3, human LILRB1 (human, UniProt Q8NHL6 24-458, limits assumed); assay: as above
T3 construct: Bought protein coated on the ELISA plate
T3 sequence (Q8NHL6 24-458 limits assumed): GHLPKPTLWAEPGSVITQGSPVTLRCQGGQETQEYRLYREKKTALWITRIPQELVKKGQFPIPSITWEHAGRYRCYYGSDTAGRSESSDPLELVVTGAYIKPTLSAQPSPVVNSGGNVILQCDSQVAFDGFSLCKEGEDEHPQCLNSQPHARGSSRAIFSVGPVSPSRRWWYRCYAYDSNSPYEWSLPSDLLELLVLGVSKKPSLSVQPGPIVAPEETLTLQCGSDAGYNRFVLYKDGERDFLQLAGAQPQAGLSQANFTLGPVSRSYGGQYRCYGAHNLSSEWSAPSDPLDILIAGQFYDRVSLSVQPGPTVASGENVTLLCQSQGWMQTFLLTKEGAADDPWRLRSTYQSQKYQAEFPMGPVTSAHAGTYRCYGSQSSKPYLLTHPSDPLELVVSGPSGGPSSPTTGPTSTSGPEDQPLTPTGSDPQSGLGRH
Method: as §1

human KIR3DL1 [3] = target: T4, human KIR3DL1 (human, UniProt P43629 22-340, limits assumed); assay: as above
T4 construct: Bought protein coated on the ELISA plate; also called hu KIR3DL1
T4 sequence (P43629 22-340 limits assumed): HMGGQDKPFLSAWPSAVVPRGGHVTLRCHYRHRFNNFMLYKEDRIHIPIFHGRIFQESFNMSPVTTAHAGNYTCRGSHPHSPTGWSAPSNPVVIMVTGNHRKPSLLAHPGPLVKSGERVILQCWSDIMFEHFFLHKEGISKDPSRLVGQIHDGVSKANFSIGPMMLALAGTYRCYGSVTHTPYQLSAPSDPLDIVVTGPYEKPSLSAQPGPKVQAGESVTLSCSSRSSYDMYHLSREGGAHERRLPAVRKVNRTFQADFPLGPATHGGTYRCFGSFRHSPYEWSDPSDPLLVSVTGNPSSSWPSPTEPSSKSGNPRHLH
Method: as §1

human KIR3DL2 [4] = target: T5, human KIR3DL2 (human, UniProt P43630 22-340, limits assumed); assay: as above
T5 construct: Bought protein coated on the ELISA plate; also called hu KIR3DL2
Method: as §1

human KIR3DL3 [5] = target: T6, human KIR3DL3 (human, UniProt Q8N743 26-322, limits assumed); assay: as above
T6 construct: Bought protein coated on the ELISA plate; also called hu KIR3DL3
T6 sequence (Q8N743 26-322 limits assumed): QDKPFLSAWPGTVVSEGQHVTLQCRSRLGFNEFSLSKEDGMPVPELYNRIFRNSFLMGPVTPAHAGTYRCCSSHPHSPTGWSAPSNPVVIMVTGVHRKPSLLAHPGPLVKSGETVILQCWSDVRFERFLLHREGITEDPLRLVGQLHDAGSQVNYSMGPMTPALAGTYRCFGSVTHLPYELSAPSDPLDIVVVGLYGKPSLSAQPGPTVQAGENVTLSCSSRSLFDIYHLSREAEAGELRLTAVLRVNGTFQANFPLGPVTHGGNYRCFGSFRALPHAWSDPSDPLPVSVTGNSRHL
Method: as §1

mouse Pirb [6] = target: T1, mouse Pirb; assay: as above
Method: as §1

human KIR3DL1 [7] = target: T4, human KIR3DL1; assay: ELISA (FIG. 5A)
Method: (§2) A) hu KIR3DL1, B) hu KIR3DL2, and C) hu KIR3DL3 are expressed in NK cells and subpopulations of T cells. D) LILRB1, and E) LILRB2 expressed mostly in myeloid cells, F) PirB (murine homologue to LILRB) and G) PTPRJ (on leukocytes is preferentially expressed in MDSCs cells and activated T cells) Figure 5:
as §1

human KIR3DL2 [8] = target: T5, human KIR3DL2; assay: ELISA (FIG. 5B)
Method: as §2, §1

human LILRB1 [9] = target: T3, human LILRB1; assay: ELISA (FIG. 5D)
Method: as §2, §1

mouse Pirb [10] = target: T1, mouse Pirb; assay: ELISA (FIG. 5F)
Method: as §2, §1

human KIR3DL3 [11] = target: T6, human KIR3DL3; assay: ELISA (FIG. 5C)
Method: as §2, §1

human LILRB2 [12] = target: T2, human LILRB2; assay: ELISA (FIG. 5E)
Method: as §2, §1

binding result (human LILRB2 [1])	binding result (human LILRB1 [2])	binding result (human KIR3DL1 [3])	binding result (human KIR3DL2 [4])	binding result (human KIR3DL3 [5])	binding result (mouse Pirb [6])	binding result (human KIR3DL1 [7])	binding result (human KIR3DL2 [8])	binding result (human LILRB1 [9])	binding result (mouse Pirb [10])	binding result (human KIR3DL3 [11])	binding result (human LILRB2 [12])	Binder
binds	binds	binds	binds	binds	binds							B582-Fc (Fc fusion, also called HLA2-Fc; HLA-B58 open conformer; not shown: human IgG4 Fc (human IgG4-Fc vector, InvivoGen)) GSHSMRYFYTAMSRPGRGEPRFIAVGYVDDTQFVRFDSDAASPRTEPRAPWIEQEGPEYWDGETRNMKASAQTYRENLRIALRYYNQSEAGSHIIQRMYGCDLGPDGRLLRGHDQSAYDGKDYIALNEDLSSWTAADTAAQITQRKWEAARVAEQLRAYLEGLCVEWLRRYLENGKETLQRADPPKTHVTHHPVSDHEATLRCWALGFYPAEITLTWQRDGEDQTQDTELVETRPAGDRTFQKWAAVVVPSGEEQRYTCHVQHEGLPKPLTLRW
binds	binds	binds	binds	binds	binds							B572-Fc (Fc fusion, also called HLA2-Fc; HLA-B57 open conformer; not shown: human IgG4 Fc (human IgG4-Fc vector, InvivoGen)) GSHSMRYFYTAMSRPGRGEPRFIAVGYVDDTQFVRFDSDAASPRMAPRAPWIEQEGPEYWDGETRNMKASAQTYRENLRIALRYYNQSEAGSHIIQVMYGCDVGPDGRLLRGHDQSAYDGKDYIALNEDLSSWTAADTAAQITQRKWEAARVAEQLRAYLEGLCVEWLRRYLENGKETLQRADPPKTHVTHHPISDHEATLRCWALGFYPAEITLTWQRDGEDQTQDTELVETRPAGDRTFQKWAAVVVPSGEEQRYTCHVQHEGLPKPLTLRW
binds	binds	binds	binds	binds	binds							B532-Fc (Fc fusion, also called HLA2-Fc; HLA-B53 open conformer; not shown: human IgG4 Fc (human IgG4-Fc vector, InvivoGen)) GSHSMRYFYTAMSRPGRGEPRFIAVGYVDDTQFVRFDSDAASPRTEPRAPWIEQEGPEYWDRNTQIFKTNTQTYRENLRIALRYYNQSEAGSHIIQRMYGCDLGPDGRLLRGHDQSAYDGKDYIALNEDLSSWTAADTAAQITQRKWEAARVAEQLRAYLEGLCVEWLRRYLENGKETLQRADPPKTHVTHHPVSDHEATLRCWALGFYPAEITLTWQRDGEDQTQDTELVETRPAGDRTFQKWAAVVVPSGEEQRYTCHVQHEGLPKPLTLRW
						binds	binds	binds	binds	binds	binds	C082-Fc (Fc fusion, also called HLA2-Fc; HLA-C08 open conformer; not shown: human IgG4 Fc (human IgG4-Fc vector, InvivoGen)) CSHSMRYFYTAVSRPGRGEPRFIAVGYVDDTQFVQFDSDAASPRGEPRAPWVEQEGPEYWDRETQKYKRQAQTDRVSLRNLRGYYNQSEAGSHTLQRMYGCDLGPDGRLLRGYNQFAYDGKDYIALNEDLRSWTAADTAAQITQRKWEAARTAEQLRAYLEGTCVEWLRRYLENGKKTLQRAEHPKTHVTHHPVSDHEATLRCWALGFYPAEITLTWQRDGEDQTQDTELVETRPAGDGTFQKWAAVVVPSGEEQRYTCHVQHEGLPEPLTLRW
						binds	binds	binds	binds	binds	binds	C122-Fc (Fc fusion, also called HLA2-Fc; HLA-C12 open conformer; not shown: human IgG4 Fc (human IgG4-Fc vector, InvivoGen)) CSHSMRYFYTAVSRPGRGEPRFIAVGYVDDTQFVRFDSDAASPRGEPRAPWVEQEGPEYWDRETQKYKRQAQADRVSLRNLRGYYNQSEAGSHTLQRMYGCDLGPDGRLLRGYDQSAYDGKDYIALNEDLRSWTAADTAAQITQRKWEAAREAEQWRAYLEGTCVEWLRRYLENGKETLQRAEHPKTHVTHHPVSDHEATLRCWALGFYPAEITLTWQRDGEDQTQDTELVETRPAGDGTFQKWAAVVVPSGEEQRYTCHVQHEGLPEPLTLRW
binds	binds	binds	binds	binds	binds							B272-Fc (Fc fusion, also called B27052-Fc; HLA2-Fc; not shown: human IgG4 Fc (human IgG4-Fc vector, InvivoGen)) GSHSMRYFHTSVSRPGRGEPRFITVGYVDDTLFVRFDSDAASPREEPRAPWIEQEGPEYWDRETQICKAKAQTDREDLRTLLRYYNQSEAGSHTLQNMYGCDVGPDGRLLRGYHQDAYDGKDYIALNEDLSSWTAADTAAQITQRKWEAARVAEQLRAYLEGECVEWLRRYLENGKETLQRADPPKTHVTHHPISDHEATLRCWALGFYPAEITLTWQRDGEDQTQDTELVETRPAGDRTFQKWAAVVVPSGEEQRYTCHVQHEGLPKPLTLRW

Binder	binding result (human LILRB2 [1])	binding result (human LILRB1 [2])	binding result (human KIR3DL1 [3])	binding result (human KIR3DL2 [4])	binding result (human KIR3DL3 [5])	binding result (mouse Pirb [6])	binding result (human KIR3DL1 [7])	binding result (human KIR3DL2 [8])	binding result (human LILRB1 [9])	binding result (mouse Pirb [10])	binding result (human KIR3DL3 [11])	binding result (human LILRB2 [12])
A252-Fc (Fc fusion, also called HLA2-Fc; HLA-A25 open conformer; not shown: human IgG4 Fc (human IgG4-Fc vector, InvivoGen)) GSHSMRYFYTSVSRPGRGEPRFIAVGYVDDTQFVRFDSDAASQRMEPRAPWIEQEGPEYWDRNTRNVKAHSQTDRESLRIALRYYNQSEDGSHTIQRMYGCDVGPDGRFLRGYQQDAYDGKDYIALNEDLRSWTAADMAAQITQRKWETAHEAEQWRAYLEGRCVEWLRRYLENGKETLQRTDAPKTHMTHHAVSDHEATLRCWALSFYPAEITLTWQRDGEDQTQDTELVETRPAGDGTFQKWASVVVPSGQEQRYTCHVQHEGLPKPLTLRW	binds	binds	binds	binds	binds	binds						
A302-Fc (Fc fusion, also called HLA2-Fc; HLA-A30 open conformer; not shown: human IgG4 Fc (human IgG4-Fc vector, InvivoGen)) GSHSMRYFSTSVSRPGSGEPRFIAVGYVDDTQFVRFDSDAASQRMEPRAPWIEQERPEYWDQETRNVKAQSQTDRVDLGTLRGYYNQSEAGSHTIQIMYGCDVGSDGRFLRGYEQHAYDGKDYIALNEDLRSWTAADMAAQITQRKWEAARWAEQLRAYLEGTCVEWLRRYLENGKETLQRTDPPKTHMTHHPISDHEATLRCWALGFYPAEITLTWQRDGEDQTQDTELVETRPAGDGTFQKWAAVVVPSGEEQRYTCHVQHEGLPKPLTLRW	binds	binds			binds	binds	binds	binds				
